Assay results: patent publication US9260500B2, “Peptide and use thereof” (Takeda Pharmaceutical Company Limited, priority 2009, dated 2016)
Starred links: 1 amine or outer side, 2 acyl side, 3 side chain; linkers in the order of their positions; H or OH if unused. Non-standard residues stand in square brackets, D forms with d. *: point of attachment. Ser(Me) = methylated serine, COC[C@H](N[*:1])C(=O)[*:2]; 1Nal = N[C@@H](Cc1cccc2ccccc12)C(=O)O; 4Pal = N[C@@H](Cc1ccncc1)C(=O)O; Cha = N[C@@H](CC1CCCCC1)C(=O)O; Aipe = 3-aminobutanoic acid; dIva = CC[C@@](C)(N)C(=O)O; hSer = N[C@@H](CCO)C(=O)O; Isobutyryl = CC(C)C(=O)*; Iva = CC[C@](C)(N)C(=O)O; Nle = CCCC[C@H](N)C(=O)O; Abu = CC[C@H](N)C(=O)O; Aib = CC(C)(N)C(=O)O; Bz = O=C(c1ccccc1)*; βAla = NCCC(=O)O

Columns and labels:
human Y2 receptor [1] = biological target: T1, human Y2 receptor (Homo sapiens, UniProt P49146); assay: Human Y2 Receptor G Protein Binding Assay (GBA), [35S]GTPγS; assay type: biochemical; details: EC50 of test compound/EC50 of PYY(3-36) (PYY3-36 taken as 1), hY2R/CHO membrane fraction
T1 construct: expressed in transfected cells; membrane fraction
T1 sequence (P49146 1-381): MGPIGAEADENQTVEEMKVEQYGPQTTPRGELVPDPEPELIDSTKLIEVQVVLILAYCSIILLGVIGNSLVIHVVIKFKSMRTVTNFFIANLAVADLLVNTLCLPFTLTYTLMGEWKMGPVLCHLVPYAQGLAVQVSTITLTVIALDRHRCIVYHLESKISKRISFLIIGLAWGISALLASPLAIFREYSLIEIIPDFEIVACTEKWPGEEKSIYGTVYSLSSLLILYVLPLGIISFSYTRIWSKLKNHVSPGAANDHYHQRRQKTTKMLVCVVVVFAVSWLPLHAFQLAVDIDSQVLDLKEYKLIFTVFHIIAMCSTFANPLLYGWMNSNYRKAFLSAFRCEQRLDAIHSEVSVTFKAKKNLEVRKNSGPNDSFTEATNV
Procedure, shortened: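 Agonism measured as [35S]GTPγS binding, read by GF/C filtration and scintillation counting after 120 min at room temperature, using human Y2 membranes at 1 μg protein/mL in pH 7.4 Tris/MgCl2/NaCl/GDP buffer. Compound serially diluted 100 μM–1 nM; EC50 normalized to PYY(3-36) (ratio = compound/PYY).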

human Y2 receptor [2] = biological target: T1, human Y2 receptor; assay: Receptor Binding Assay (RBA) for Human Y2, [125I]-PYY displacement on hY2R/CHO membrane fraction; details: IC50 of test compound/IC50 of PYY(3-36) (PYY(3-36) taken as 1)
Procedure, shortened: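 Read-out is [125I]-PYY displacement from membranes of CHO/dhfr− cells stably transfected with human Y2R. Membranes were obtained by disrupting cells in a buffer of 10 mM NaHCO3, 5 mM EDTA and protease inhibitors.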

| Substance | GBA EC50 Ratio (human Y2 receptor [1]) | RBA IC50 Ratio (human Y2 receptor [2]) |
| --- | --- | --- |
| Isobutanoyl-[Abu26, Cha27,28,36, His30, Aib31]-PYY(25-36) (Isobutyryl-R[Abu][Cha][Cha]NH[Aib]TRQR[Cha]-NH2; SMILES CC[C@H](NC(=O)[C@H](CCCNC(=N)N)NC(=O)C(C)C)C(=O)N[C@@H](CC1CCCCC1)C(=O)N[C@@H](CC1CCCCC1)C(=O)N[C@@H](CC(N)=O)C(=O)N[C@@H](Cc1c[nH]cn1)C(=O)NC(C)(C)C(=O)N[C@H](C(=O)N[C@@H](CCCNC(=N)N)C(=O)N[C@@H](CCC(N)=O)C(=O)N[C@@H](CCCNC(=N)N)C(=O)N[C@@H](CC1CCCCC1)C(N)=O)[C@@H](C)O) [compound No. 92] | 20 | 22 |
| Ac-[D-Pro24, Cit25, Pya(4)26, Cha27,36, Aib28,31, Lys30]-PYY(23-36) [compound No. 225] | 2.2 | 2.8 |
| Ac-[βAla24, Pya(4)26, Cha27,36, Aib28,31, Lys30]-PYY(23-36) (Ac-S[βAla]R[4Pal][Cha][Aib]NK[Aib]TRQR[Cha]-NH2; SMILES CC(=O)N[C@@H](CO)C(=O)NCCC(=O)N[C@@H](CCCNC(=N)N)C(=O)N[C@@H](Cc1ccncc1)C(=O)N[C@@H](CC1CCCCC1)C(=O)NC(C)(C)C(=O)N[C@@H](CC(N)=O)C(=O)N[C@@H](CCCCN)C(=O)NC(C)(C)C(=O)N[C@H](C(=O)N[C@@H](CCCNC(=N)N)C(=O)N[C@@H](CCC(N)=O)C(=O)N[C@@H](CCCNC(=N)N)C(=O)N[C@@H](CC1CCCCC1)C(N)=O)[C@@H](C)O) [compound No. 222] | 1.1 | 1.9 |
| Ac-[D-Pro24, Nle25, Pya(4)26, Cha27,28,36, Aib31]-PYY(23-36) (Ac-S[dP][Nle][4Pal][Cha][Cha]NL[Aib]TRQR[Cha]-NH2; SMILES CCCC[C@H](NC(=O)[C@H]1CCCN1C(=O)[C@H](CO)NC(C)=O)C(=O)N[C@@H](Cc1ccncc1)C(=O)N[C@@H](CC1CCCCC1)C(=O)N[C@@H](CC1CCCCC1)C(=O)N[C@@H](CC(N)=O)C(=O)N[C@@H](CC(C)C)C(=O)NC(C)(C)C(=O)N[C@H](C(=O)N[C@@H](CCCNC(=N)N)C(=O)N[C@@H](CCC(N)=O)C(=O)N[C@@H](CCCNC(=N)N)C(=O)N[C@@H](CC1CCCCC1)C(N)=O)[C@@H](C)O) [compound No. 140] | 2.6 | 20 |
| Ac-[Ser(Me)23, D-Pro24, Abu26, Cha27,28,36, Aib31]-PYY(23-36) (Ac-[Ser(Me)][dP]R[Abu][Cha][Cha]NL[Aib]TRQR[Cha]-NH2; SMILES CC[C@H](NC(=O)[C@H](CCCNC(=N)N)NC(=O)[C@H]1CCCN1C(=O)[C@H](COC)NC(C)=O)C(=O)N[C@@H](CC1CCCCC1)C(=O)N[C@@H](CC1CCCCC1)C(=O)N[C@@H](CC(N)=O)C(=O)N[C@@H](CC(C)C)C(=O)NC(C)(C)C(=O)N[C@H](C(=O)N[C@@H](CCCNC(=N)N)C(=O)N[C@@H](CCC(N)=O)C(=O)N[C@@H](CCCNC(=N)N)C(=O)N[C@@H](CC1CCCCC1)C(N)=O)[C@@H](C)O) [compound No. 106] | 3.8 | 5.2 |
| Ac-[Hse23, D-Pro24, Cha27,28,36, Aib31]-PYY(23-36) (Ac-[hSer][dP]RH[Cha][Cha]NL[Aib]TRQR[Cha]-NH2; SMILES CC(=O)N[C@@H](CCO)C(=O)N1CCC[C@@H]1C(=O)N[C@@H](CCCNC(=N)N)C(=O)N[C@@H](Cc1c[nH]cn1)C(=O)N[C@@H](CC1CCCCC1)C(=O)N[C@@H](CC1CCCCC1)C(=O)N[C@@H](CC(N)=O)C(=O)N[C@@H](CC(C)C)C(=O)NC(C)(C)C(=O)N[C@H](C(=O)N[C@@H](CCCNC(=N)N)C(=O)N[C@@H](CCC(N)=O)C(=O)N[C@@H](CCCNC(=N)N)C(=O)N[C@@H](CC1CCCCC1)C(N)=O)[C@@H](C)O) [compound No. 157] | 1.6 | 2.5 |
| Ac-[Aipe24, Pya(4)26, Cha27,36, Aib28,31, Lys30]-PYY(23-36) (Ac-S[Aipe]R[4Pal][Cha][Aib]NK[Aib]TRQR[Cha]-NH2) [compound No. 243] | 2 | 1.3 |
| Benzoyl-[Cha27,36, Ile28, Pya(4)31]-PYY(25-36) (Bz-RH[Cha]INL[4Pal]TRQR[Cha]-NH2; SMILES CC[C@H](C)[C@H](NC(=O)[C@H](CC1CCCCC1)NC(=O)[C@H](Cc1c[nH]cn1)NC(=O)[C@H](CCCNC(=N)N)NC(=O)c1ccccc1)C(=O)N[C@@H](CC(N)=O)C(=O)N[C@@H](CC(C)C)C(=O)N[C@@H](Cc1ccncc1)C(=O)N[C@H](C(=O)N[C@@H](CCCNC(=N)N)C(=O)N[C@@H](CCC(N)=O)C(=O)N[C@@H](CCCNC(=N)N)C(=O)N[C@@H](CC1CCCCC1)C(N)=O)[C@@H](C)O) [compound No. 71] | 8.5 | 7.6 |
| Ac-[Phe23, D-Pro24, Abu26, Cha27,28,36, Aib31]-PYY(23-36) (Ac-F[dP]R[Abu][Cha][Cha]NL[Aib]TRQR[Cha]-NH2; SMILES CC[C@H](NC(=O)[C@H](CCCNC(=N)N)NC(=O)[C@H]1CCCN1C(=O)[C@H](Cc1ccccc1)NC(C)=O)C(=O)N[C@@H](CC1CCCCC1)C(=O)N[C@@H](CC1CCCCC1)C(=O)N[C@@H](CC(N)=O)C(=O)N[C@@H](CC(C)C)C(=O)NC(C)(C)C(=O)N[C@H](C(=O)N[C@@H](CCCNC(=N)N)C(=O)N[C@@H](CCC(N)=O)C(=O)N[C@@H](CCCNC(=N)N)C(=O)N[C@@H](CC1CCCCC1)C(N)=O)[C@@H](C)O) [compound No. 107] | 5.9 | 12 |
| Ac-[Dap22, D-Pro24, Pya(4)26, Cha27,36, Aib28,31, Lys30]-PYY(22-36) [compound No. 273] | 1.6 | 1.2 |
| Ac-[D-Pro24, Pya(4)26, Cha27,36, Aib28,31, Orn30]-PYY(23-36) [compound No. 206] | 0.83 | 1.5 |
| Benzoyl-[Cha27,36, Nal(1)28, Aib31]-PYY(25-36) (Bz-RH[Cha][1Nal]NL[Aib]TRQR[Cha]-NH2; SMILES CC(C)C[C@H](NC(=O)[C@H](CC(N)=O)NC(=O)[C@H](Cc1cccc2ccccc12)NC(=O)[C@H](CC1CCCCC1)NC(=O)[C@H](Cc1c[nH]cn1)NC(=O)[C@H](CCCNC(=N)N)NC(=O)c1ccccc1)C(=O)NC(C)(C)C(=O)N[C@H](C(=O)N[C@@H](CCCNC(=N)N)C(=O)N[C@@H](CCC(N)=O)C(=O)N[C@@H](CCCNC(=N)N)C(=O)N[C@@H](CC1CCCCC1)C(N)=O)[C@@H](C)O) [compound No. 63] | 25 | 34 |
| Ac-[Glu23, βAla24, Pya(4)26, Cha27,36, Aib28,31, Lys30]-PYY(23-36) (Ac-E[βAla]R[4Pal][Cha][Aib]NK[Aib]TRQR[Cha]-NH2; SMILES CC(=O)N[C@@H](CCC(=O)O)C(=O)NCCC(=O)N[C@@H](CCCNC(=N)N)C(=O)N[C@@H](Cc1ccncc1)C(=O)N[C@@H](CC1CCCCC1)C(=O)NC(C)(C)C(=O)N[C@@H](CC(N)=O)C(=O)N[C@@H](CCCCN)C(=O)NC(C)(C)C(=O)N[C@H](C(=O)N[C@@H](CCCNC(=N)N)C(=O)N[C@@H](CCC(N)=O)C(=O)N[C@@H](CCCNC(=N)N)C(=O)N[C@@H](CC1CCCCC1)C(N)=O)[C@@H](C)O) [compound No. 223] | 3.9 | 7.4 |
| Ac-[D-Pro24, Pya(4)26, Cha27,36, D-Iva28,31, Lys30]-PYY(23-36) (Ac-S[dP]R[4Pal][Cha][dIva]NK[dIva]TRQR[Cha]-NH2; SMILES CC[C@@](C)(NC(=O)[C@H](CC1CCCCC1)NC(=O)[C@H](Cc1ccncc1)NC(=O)[C@H](CCCNC(=N)N)NC(=O)[C@H]1CCCN1C(=O)[C@H](CO)NC(C)=O)C(=O)N[C@@H](CC(N)=O)C(=O)N[C@@H](CCCCN)C(=O)N[C@](C)(CC)C(=O)N[C@H](C(=O)N[C@@H](CCCNC(=N)N)C(=O)N[C@@H](CCC(N)=O)C(=O)N[C@@H](CCCNC(=N)N)C(=O)N[C@@H](CC1CCCCC1)C(N)=O)[C@@H](C)O) [compound No. 247] | 1.6 | 0.70 |
| Ac-[D-Pro24, Pya(4)26, Cha27,36, Aib28,31, Lys(Hexyl)30]-PYY(23-36) [compound No. 279] | 1.3 | 1.0 |
| Ac-[D-Pro24, Iva26, Cha27,28,36, Aib31]-PYY(23-36) (Ac-S[dP]R[Iva][Cha][Cha]NL[Aib]TRQR[Cha]-NH2; SMILES CC[C@](C)(NC(=O)[C@H](CCCNC(=N)N)NC(=O)[C@H]1CCCN1C(=O)[C@H](CO)NC(C)=O)C(=O)N[C@@H](CC1CCCCC1)C(=O)N[C@@H](CC1CCCCC1)C(=O)N[C@@H](CC(N)=O)C(=O)N[C@@H](CC(C)C)C(=O)NC(C)(C)C(=O)N[C@H](C(=O)N[C@@H](CCCNC(=N)N)C(=O)N[C@@H](CCC(N)=O)C(=O)N[C@@H](CCCNC(=N)N)C(=O)N[C@@H](CC1CCCCC1)C(N)=O)[C@@H](C)O) [compound No. 176] | 4.2 | 5.2 |
